From article doi:10.1101/2020.10.22.351056 (bioRxiv, 2020)

Target: Fc-conjugated human angiotensin converting enzyme 2 (ACE2-Fc) (human, UniProt Q9BYF1)
Assay: ELISA

Sequence of Fc-conjugated human angiotensin converting enzyme 2 (ACE2-Fc) (Q9BYF1 18-740): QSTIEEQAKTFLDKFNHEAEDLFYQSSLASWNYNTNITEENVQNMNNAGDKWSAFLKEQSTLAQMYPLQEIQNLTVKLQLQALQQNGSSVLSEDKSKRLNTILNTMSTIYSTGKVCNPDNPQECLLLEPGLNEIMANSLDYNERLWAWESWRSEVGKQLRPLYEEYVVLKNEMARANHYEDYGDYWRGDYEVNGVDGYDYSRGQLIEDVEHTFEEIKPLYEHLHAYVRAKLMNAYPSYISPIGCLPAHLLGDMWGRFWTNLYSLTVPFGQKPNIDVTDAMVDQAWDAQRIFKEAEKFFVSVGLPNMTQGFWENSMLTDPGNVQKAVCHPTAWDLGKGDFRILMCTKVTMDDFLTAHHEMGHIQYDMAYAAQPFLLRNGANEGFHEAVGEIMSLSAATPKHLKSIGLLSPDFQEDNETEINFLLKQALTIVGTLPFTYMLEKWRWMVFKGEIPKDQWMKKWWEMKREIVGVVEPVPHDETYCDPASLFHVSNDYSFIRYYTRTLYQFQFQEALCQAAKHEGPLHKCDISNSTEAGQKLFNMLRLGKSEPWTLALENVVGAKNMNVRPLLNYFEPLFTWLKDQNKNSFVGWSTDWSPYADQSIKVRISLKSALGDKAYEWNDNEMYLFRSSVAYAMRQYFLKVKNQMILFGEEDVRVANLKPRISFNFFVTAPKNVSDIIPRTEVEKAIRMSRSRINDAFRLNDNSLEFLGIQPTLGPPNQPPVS

B1: SARS-CoV spike protein S1+S2, His-tagged (domain or fragment)
chain: not shown
EC50: 13.9 nM
